In patent publication US20250382384A1 one finds percent of αβTCR+ T cells in the dashed MUC1+ box (antibody-bound T cells) data, which are given here for 2 substances.

Experiment [1] has as its target MUC1 on normal activated human T cells (human) (UniProt P15941). Nature of the experiment: FACS on PHA-L-activated human PBMC, live αβTCR+ cells, donor 3011029.
For experiment [2] the target is unchanged. Nature of the experiment: FACS on PHA-L-activated human PBMC, live αβTCR+ cells, donor 3009223.
For experiment [3] the target is unchanged. Kind of experiment: FACS on PHA-L-activated human PBMC, live αβTCR+ cells, donor 191180405C.
Experiment [4] shares this target. Nature of the experiment: FACS on PHA-L-activated human PBMC, live αβTCR+ cells, donor 190980805C.
For experiment [5] the target is unchanged. Kind of experiment: FACS on PHA-L-activated human PBMC, live αβTCR+ cells; gating scheme, donor not given.

Sequence of MUC1 on normal activated human T cells (human) (P15941 24-1255): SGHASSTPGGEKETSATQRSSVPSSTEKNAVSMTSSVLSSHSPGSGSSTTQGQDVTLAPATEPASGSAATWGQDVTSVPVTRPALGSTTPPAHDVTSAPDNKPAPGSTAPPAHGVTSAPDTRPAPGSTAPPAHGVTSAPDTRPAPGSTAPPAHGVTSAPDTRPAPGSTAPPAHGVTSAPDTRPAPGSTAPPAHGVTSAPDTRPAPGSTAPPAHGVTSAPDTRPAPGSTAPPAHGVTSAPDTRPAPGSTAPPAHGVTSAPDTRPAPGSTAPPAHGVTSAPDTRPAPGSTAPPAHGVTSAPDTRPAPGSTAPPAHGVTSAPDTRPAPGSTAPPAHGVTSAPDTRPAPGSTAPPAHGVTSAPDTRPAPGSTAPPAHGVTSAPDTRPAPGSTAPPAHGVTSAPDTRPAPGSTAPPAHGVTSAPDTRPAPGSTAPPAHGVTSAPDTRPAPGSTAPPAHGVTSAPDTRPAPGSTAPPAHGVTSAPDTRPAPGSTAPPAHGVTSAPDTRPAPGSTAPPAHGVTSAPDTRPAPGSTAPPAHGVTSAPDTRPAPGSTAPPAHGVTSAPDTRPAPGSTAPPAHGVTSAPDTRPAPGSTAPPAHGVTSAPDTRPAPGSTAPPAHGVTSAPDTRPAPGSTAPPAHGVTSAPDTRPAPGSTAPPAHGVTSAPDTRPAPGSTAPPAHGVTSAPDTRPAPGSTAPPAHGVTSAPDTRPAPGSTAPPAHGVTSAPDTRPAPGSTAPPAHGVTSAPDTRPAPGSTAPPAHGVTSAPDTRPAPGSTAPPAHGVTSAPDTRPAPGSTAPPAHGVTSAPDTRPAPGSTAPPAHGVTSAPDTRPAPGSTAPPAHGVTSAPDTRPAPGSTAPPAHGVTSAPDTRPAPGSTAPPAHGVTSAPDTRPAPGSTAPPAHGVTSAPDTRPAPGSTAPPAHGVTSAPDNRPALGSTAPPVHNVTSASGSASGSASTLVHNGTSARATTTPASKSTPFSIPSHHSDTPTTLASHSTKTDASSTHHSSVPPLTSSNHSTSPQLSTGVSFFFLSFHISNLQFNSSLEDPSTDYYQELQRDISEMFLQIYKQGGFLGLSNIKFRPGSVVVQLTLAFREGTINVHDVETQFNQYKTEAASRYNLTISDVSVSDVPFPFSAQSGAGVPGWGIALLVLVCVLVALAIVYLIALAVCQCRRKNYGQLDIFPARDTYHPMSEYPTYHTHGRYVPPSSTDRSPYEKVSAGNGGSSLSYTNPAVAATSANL

In the case of Isotype (antibody), the percent of αβTCR+ T cells in the dashed MUC1+ box (antibody-bound T cells) came out at 0.36% in experiment [1]; 0.05% in experiment [2]; 0.29% in experiment [3]; 0.15% in experiment [4]; 0.29% in experiment [5].

For HMFG1 (antibody), the percent of αβTCR+ T cells in the dashed MUC1+ box (antibody-bound T cells) was 23.2% in experiment [1]; 10% in experiment [2]; 28.1% in experiment [3]; 28.2% in experiment [4]; 28.1% in experiment [5].
